In patent publication EP1444995A1 one finds FGF-2 nuclear accumulation in NIH-3T3 cells after Translokin siRNA data, which are given here for one substance.

The target of the experiment is endogenous Translokin of mouse NIH-3T3 cells (mouse) (UniProt Q8CEE0). Description: cell-based or functional assay.
UniProt Q8CEE0, sequence (Q8CEE0 whole entry): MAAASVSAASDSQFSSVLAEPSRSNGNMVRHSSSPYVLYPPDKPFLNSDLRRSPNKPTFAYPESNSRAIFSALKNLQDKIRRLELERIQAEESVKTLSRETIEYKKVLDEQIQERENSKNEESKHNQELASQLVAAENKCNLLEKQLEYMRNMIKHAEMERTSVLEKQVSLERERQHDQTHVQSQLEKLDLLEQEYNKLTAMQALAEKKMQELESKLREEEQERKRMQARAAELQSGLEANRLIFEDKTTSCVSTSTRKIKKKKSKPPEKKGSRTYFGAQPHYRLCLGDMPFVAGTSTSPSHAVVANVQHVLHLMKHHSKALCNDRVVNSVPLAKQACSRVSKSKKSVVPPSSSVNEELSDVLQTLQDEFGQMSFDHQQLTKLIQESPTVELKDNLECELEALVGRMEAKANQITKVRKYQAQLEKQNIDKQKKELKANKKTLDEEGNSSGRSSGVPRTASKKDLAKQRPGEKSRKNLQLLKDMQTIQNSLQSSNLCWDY

Substance HA-tagged FGF-2 (18 kDa) (ligand) gave an FGF-2 nuclear accumulation in NIH-3T3 cells after Translokin siRNA of 80%.
